Substrate in this data set: [H][C@@]1(O[C@H]2[C@H](O)[C@@H](O)[C@H](Oc3ccc([N+](=O)[O-])cc3)O[C@@H]2CO)O[C@H](CO)[C@H](O)[C@H](O)[C@H]1O
In words: p-nitrophenol release, Lineweaver-Burk. The format is biochemical, Aspergillus fumigatus. To be noted: 50 °C, 30 min, 25 mM citrate pH 5.0.

B1: AfCel7A (Aspergillus fumigatus Af293) (protein)
chain: QQVGTSQAEVHPSMTWQSCTAGGSCTTNNGKVVIDANWRWVHKVGDYTNCYTGNTWDTTICPDDATCASNCALEGANYESTYGVTASGNSLRLNFVTTSQQKNIGSRLYMMKDDSTYEMFKLLNQEFTFDVDVSNLPCGLNGALYFVAMDADGGMSKYPTNKAGAKYGTGYCDSQCPRDLKFINGQANVEGWQPSSNDANAGTGNHGSCCAEMDIWEANSISTAFTPHPCDTPGQVMCTGDACGGTYSSDRYGGTCDPDGCDFNSFRQGNKTFYGPGMTVDTKSKFTVVTQFITDDGTSSGTLKEIKRFYVQNGKVIPNSESTWTGVSGNSITTEYCTAQKSLFQDQNVFEKHGGLEGMGAALAQGMVLVMSLWDDHSANMLWLDSNYPTTASSTTPGVARGTCDISSGVPADVEANHPDAYVVYSNIKVGPIGSTFNSGGSNPGGGTTTTTTTQPTTTTTTAGNPGGTGVAQHYGQCGGIGWTGPTTCASPYTCQKLNDYYSQCL
For the protein B1, the Km (commonly the substrate concentration at which the rate is half of its maximum) was 128 ± 1 µM and the turnover number (kcat) – broadly, the maximal rate divided by the concentration of active sites – was determined as 0.08055 ± 0.00033 s⁻¹.

Values taken from publication doi:10.1101/2023.07.13.548902v1.
